From US20250388643A1, “GLUCAGON-LIKE PEPTIDE-2 COMPOSITIONS AND METHODS OF MAKING AND USING SAME” (Amunix Pharmaceuticals, Inc., priority 2011, published 2025)
Entries after “also recorded” stand apart in the source; their conditions may differ. Read-outs that look alike come from different tables or passages of the source.

Legend:
[1] = cynomolgus monkey, in vivo
Experimental: The fusion protein GLP2-2G-XTEN_AE864 was evaluated for its pharmacokinetic properties in male cynomolgus monkeys following either subcutaneous or intravenous administration of the fusion protein at a single dosage level. Three male cynomolgus monkeys were injected IV and 3 male cynomolgus monkeys were injected SC with 2 mg/kg (25 nmol/kg) GLP2-2G-XTEN at time 0. Blood samples were collected from each monkey into prechilled heparinized tubes at pre-dose and at approximately 0.083 h (5 min), 1, 2, 4, 8, 24, 48, 72, 96, 120, 168, 216, 264, and 336 hours after administration of the fusion protein for the first phase of the study. Animals were allowed to “wash-out” for a 6 week period (4 weeks post-last collection time point of Phase 1), the groups were crossed over (SC to IV and IV to SC), and dosed again with the same dose of GLP2-2G-XTEN fusion protein. Blood samples were collected at pre-dose and at approximately 0.083 h (5 min), 1, 2, 4, 8, 24, 48, 72, 96, 120, 168, 216, 264, 336, 384, 432, and 504 hours post-dose in the second phase of the study. All blood samples were processed into plasma by centrifugation and split into two aliquots for analysis by ELISA. The samples were analyzed for fusion protein concentration, performed by anti-GLP2/anti-XTEN ELISA (AS1705) and the results were analyzed using WinNonLin to obtain the PK parameters.

[2] = target: T1, GLP2 G-protein coupled receptor (Homo sapiens, UniProt O95838); assay: GLP2R calcium flux potency assay (GPCR Profiler, in vitro receptor binding); format: cell-based; details: calcium flux GLP2R cell assay
T1 construct: host or cells: Chem-11 cell
T1 sequence (O95838 1-553): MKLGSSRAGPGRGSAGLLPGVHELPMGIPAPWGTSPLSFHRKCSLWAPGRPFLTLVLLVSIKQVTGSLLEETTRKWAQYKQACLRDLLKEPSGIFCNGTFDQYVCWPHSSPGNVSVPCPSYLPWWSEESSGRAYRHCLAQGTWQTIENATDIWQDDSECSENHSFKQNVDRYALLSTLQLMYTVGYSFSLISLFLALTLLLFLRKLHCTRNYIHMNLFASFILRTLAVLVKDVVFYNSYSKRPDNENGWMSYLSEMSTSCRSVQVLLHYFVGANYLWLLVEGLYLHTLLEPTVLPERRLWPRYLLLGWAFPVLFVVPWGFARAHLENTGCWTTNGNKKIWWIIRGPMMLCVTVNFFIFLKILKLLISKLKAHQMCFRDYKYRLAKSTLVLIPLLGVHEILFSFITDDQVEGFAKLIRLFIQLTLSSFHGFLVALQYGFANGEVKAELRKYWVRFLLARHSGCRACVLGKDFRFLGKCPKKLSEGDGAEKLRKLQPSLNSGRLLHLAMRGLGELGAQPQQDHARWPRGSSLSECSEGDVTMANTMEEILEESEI
Experimental: A receptor binding assay was performed using a GPCR Profiler assay (Millipore) to assess GLP2-2G-XTEN preparations (including AP690). The assay employed a transfected GLP2R cell line (Millipore, Cat #HTS164C) consisting of a Chem-11 human cell stably transfected with the GLP2 G-protein coupled receptor and a G alpha protein that stimulates calcium flux upon agonism of the GLP2 receptor.

[3] = tested on: indomethacin-induced intestinal inflammation in Wistar rats; assay: Rat Crohn's Disease indomethacin-induced intestinal inflammation model, Study 1; format: in vivo
Experimental: To determine the efficacy of GLP2-XTEN using single dose or qd dosing, the GLP2-2G-XTEN-AE864 fusion protein was evaluated in a rat model of Crohn's Disease of indomethacin-induced intestinal inflammation in three separate studies.
Study 1: Intestinal inflammation was induced in eighty male Wistar rats (Harlan Sprague Dawley) using indomethacin administered on Days 0 and 1 of the experiment. The rats were divided into seven treatment groups for treatment according to Table 19.
All treatments were administered per the schedule starting on Day −3 of the experiment. Body weights were determined daily. Groups 3 and 5 were dosed equimolar/day. On Day 2 (24 hours post-2nd indomethacin dose), the animals were prepped for sacrifice and analysis. Thirty minutes prior to sacrifice, the rats were injected intravenously with 1 ml 1% Evans Blue dye, in order to visualize ulcers and extent of inflammation by histopathology analysis. The rats were anesthetized (SOP 1810), blood samples were removed to determine the concentration of GLP-2-2G-XTEN using the anti-XTEN/anti-GLP2 ELISA method. The rats were euthanized then necropsied and scored by gross examination of the intestines for the presence of adhesions; i.e., none=0, mild=1, moderate=2, or severe=3. The small intestines were removed and the length of each was recorded. In each small intestine, a longitudinal incision was made and the interior was examined. The degree and length of the ulcerated area was recorded as a score; i.e., none=0, few=1, multiple=2, or continuous=3. For TNFα determination, intestinal samples were thawed and homogenized in a total of 20 ml with DPBS. The supernatants were equilibrated to room temperature and assayed for TNFα by ELISA (R&D Systems, Cat. RTA00, lot 281687, exp. 7 Sep. 2011). The samples for Group 1 were assayed undiluted. The samples for Groups 2-7 were diluted 1:4. For histopathology, the small intestines were gently washed with saline to remove the fecal material and were blotted to remove excess fluid. Each small intestine was weighed then processed for histopathology examination to quantitate the degree of inflammation; i.e., 0.0%=0, 1-33%=1, 34-66%=2, 67-100%=3.

potency compared to GLP2-2G [2]: about 2%
B1: GLP2-2G-XTEN_AE864: fusion protein of GLP-2 with glycine at position 2 linked at the C-terminus to XTEN AE864; sequence of FIG. 28 (SEQ ID NO: 798) (protein)
chain: HGDGSFSDEMNTILDNLAARDFINWLIQTKITDGGSPAGSPTSTEEGTSESATPESGPGTSTEPSEGSAPGSPAGSPTSTEEGTSTEPSEGSAPGTSTEPSEGSAPGTSESATPESGPGSEPATSGSETPGSEPATSGSETPGSPAGSPTSTEEGTSESATPESGPGTSTEPSEGSAPGTSTEPSEGSAPGSPAGSPTSTEEGTSTEPSEGSAPGTSTEPSEGSAPGTSESATPESGPGTSTEPSEGSAPGTSESATPESGPGSEPATSGSETPGTSTEPSEGSAPGTSTEPSEGSAPGTSESATPESGPGTSESATPESGPGSPAGSPTSTEEGTSESATPESGPGSEPATSGSETPGTSESATPESGPGTSTEPSEGSAPGTSTEPSEGSAPGTSTEPSEGSAPGTSTEPSEGSAPGTSTEPSEGSAPGTSTEPSEGSAPGSPAGSPTSTEEGTSTEPSEGSAPGTSESATPESGPGSEPATSGSETPGTSESATPESGPGSEPATSGSETPGTSESATPESGPGTSTEPSEGSAPGTSESATPESGPGSPAGSPTSTEEGSPAGSPTSTEEGSPAGSPTSTEEGTSESATPESGPGTSTEPSEGSAPGTSESATPESGPGSEPATSGSETPGTSESATPESGPGSEPATSGSETPGTSESATPESGPGTSTEPSEGSAPGSPAGSPTSTEEGTSESATPESGPGSEPATSGSETPGTSESATPESGPGSPAGSPTSTEEGSPAGSPTSTEEGTSTEPSEGSAPGTSESATPESGPGTSESATPESGPGTSESATPESGPGSEPATSGSETPGSEPATSGSETPGSPAGSPTSTEEGTSTEPSEGSAPGTSTEPSEGSAPGSEPATSGSETPGTSESATPESGPGTSTEPSEGSAPG
Cl [1]: 1.6 mL/h
T ½ [1]: 125 h
Vd [1]: 0.098 L/kg
AUCInf ([1]; iv, 2 mg/kg): 3,700,000 hr * ng/mL
Cl ([1]; iv, 2 mg/kg): 1.9 mL/h
T ½ ([1]; iv, 2 mg/kg): 110.0 h
Vd ([1]; iv, 2 mg/kg): 0.09 L/kg
AUCInf ([1]; sc, 2 mg/kg): 3,400,000 hr * ng/mL
T ½ ([1]; sc, 2 mg/kg): 120.0 h
Vd ([1]; sc, 2 mg/kg): 0.11 L/kg
small intestine weight ([3]; 0.5 mg/kg peptide, both fusion protein groups, compared to diseased control Group 2, FIG. 21C): significant increase
ulceration score ([3]; 6 mg/kg fusion protein): not significantly different from the non-diseased control
scores of adhesions and transulceration ([3]; 2 and 6 mg/kg fusion protein): not significantly different from the non-diseased control
small intestine length ([3]; FIG. 21B): significant increase; also recorded: length equivalent to the non-diseased control
ulceration (gross pathology scoring of small intestine) ([3]; FIG. 21D): significant decreases in ulceration
small intestine inflammation score ([3]; FIG. 21F): neither the GLP-2-2G peptide nor the GLP-2-2G-XTEN fusion protein treatments showed a significant effect on inflammation
body weight at termination ([3]; compared to disease control (Group 2), FIG. 21A): demonstrated a significant increase
scores of adhesions and transulceration ([3]; compared to diseased control (Group 2), FIG. 21E): significant decreases
TNFα in small intestine (ELISA) ([3]; compared to diseased control Group 2, FIG. 21G): significantly decreased cytokine levels
efficacy in improving indomethacin-induced small intestine damage ([3]; equal nmol/kg dosing): as good or better than GLP2-2G peptide
